Positions count from the first letter of the chain named.
What was measured:
MntR WT [1] = target: T1, MntR WT (Bacillus subtilis, UniProt P54512 1-142); assay: FSEC
T1 sequence: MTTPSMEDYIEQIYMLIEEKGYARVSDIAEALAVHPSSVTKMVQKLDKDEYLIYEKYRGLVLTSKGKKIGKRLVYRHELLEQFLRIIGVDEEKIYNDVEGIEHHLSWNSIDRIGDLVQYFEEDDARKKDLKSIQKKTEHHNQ

MntR D27A [2] = target: T2, MntR D27A (Bacillus subtilis, UniProt P54512 1-142, D27A); assay: FSEC
T2 sequence: T1 sequence with D27A

MntR Y22A [3] = target: T3, MntR Y22A (Bacillus subtilis, UniProt P54512 1-142, Y22A); assay: FSEC
T3 sequence: T1 sequence with Y22A

MntR D27A [4] = target: T2, MntR D27A; assay: mass photometry
MntR WT [5] = target: T1, MntR WT; assay: cryo-EM
MntR D27A [6] = target: T2, MntR D27A; assay: mass photometry; remark: listed apart in the source
MntR WT [7] = target: T1, MntR WT; assay: mass photometry
MntR Y22A [8] = target: T3, MntR Y22A; assay: mass photometry
MntR WT [9] = target: T1, MntR WT; assay: FSEC; remark: listed apart in the source
mass photometry = target: the molecule itself; assay: mass photometry

B1: H26 (mntH operator) (dsDNA)
DNA 1: GATAATTTGCCTTAAGGAAACTCTTC
DNA 2: GAAGAGTTTCCTTAAGGCAAATTATC
binding result (MntR WT [1]): binds | binding result (MntR D27A [2]): binds | binding result (MntR Y22A [3]): binds

B2: P84 (mneP regulatory region) (dsDNA)
DNA 1: CCTTTTTAGCATAGCTCCAACTTTTTTTCTGTCACCTTATTTATTAGTAAACAGGAAACAACGTTGCTATAGACCCACTCGAAG
DNA 2: CTTCGAGTGGGTCTATAGCAACGTTGTTTCCTGTTTACTAATAAATAAGGTGACAGAAAAAAAGTTGGAGCTATGCTAAAAAGG
binding result (MntR D27A [4]): binds | binding result (MntR WT [5]): binds

B3: C84 (four consensus MntR sites) (dsDNA)
DNA 1: CCTTTTTTGCCTTAAGGAAACTTTTTTGCCTTAAGGAAACTTATTTGCCTTAAGGAAACTACTTTGCCTTAAGGAAACTCGAAG
DNA 2: CTTCGAGTTTCCTTAAGGCAAAGTAGTTTCCTTAAGGCAAATAAGTTTCCTTAAGGCAAAAAAGTTTCCTTAAGGCAAAAAAGG
binding result (MntR D27A [6]): binds | binding result (MntR WT [7]): binds | binding result (MntR Y22A [8]): binds

B4: P26 (mneP site 1) (dsDNA)
DNA 1: CAACGTTGCTATAGACCCACTCGAAA
DNA 2: TTTCGAGTGGGTCTATAGCAACGTTG
binding result (MntR WT [9]): no binding | binding result (MntR D27A [2]): no binding | binding result (MntR Y22A [3]): no binding

B5: Bacillus subtilis MntR, wild type (natural protein)
chain: T1 sequence
stoichiometry N (mass photometry): 2

Reference: article PMC11882963 (Nature Communications, 2024)
